From patent US20240174744A1 (SCIRHOM, published 2024)

B1: antibody 51 (antibody, V domains shown)
VH: QVQLQQSGAELVKPGASVKISCKASGYTFSNYWMNWVKQRPGKGLEWIGQIYPGDGDTKYNGKFKNKATLTADKSSSTAYMQFSSLTSEDSAVYFCARGDLVFVYWGLGTLVTVSA
VL: DVQITQSPSYLAVSPGETITINCRASKNIRKYLAWYQEKPGKTNKLLIYSGSTSQSGVPSRFSGSGSGTDFTLTISSLEPEDFAMYYCQQHNEYPYTFGGGTKLEIK
notes: Mouse IgG, kappa light chain; also called clone #51
B2: antibody 47 (antibody, V domains shown)
VH: QVQLQQSGAELVRPGTSVKVSCKASGYAFTNYLIEWVKQRPGQGLEWIGVINPGSGFTNYNEKFKGKAILNADKSSSTAYMQLISLTSEDSAVYFCARDLKRAMDHWGQGTSVTVSS
VL: DIQMTQSPASQSASLGESVTITCLASQTIGTWLAWYQQKPGKSPQLLIHAATSLADGVPSRFSGSGSGTKFSFKISSLQAEDFVSYYCQQIYSSPYTFGGGTKLEIK
notes: Mouse IgG, kappa light chain; also called clone #47

Target: T1, hiR2-FL-WT-FLAG (human iRhom2 full length wild type C-terminally tagged with the triple-FLAG epitope) (human, UniProt Q6PJF5 1-856)
T1 construct: also called expressed by MEF-DKO-hiR2-FL-WT-FLAG cells
T1 sequence: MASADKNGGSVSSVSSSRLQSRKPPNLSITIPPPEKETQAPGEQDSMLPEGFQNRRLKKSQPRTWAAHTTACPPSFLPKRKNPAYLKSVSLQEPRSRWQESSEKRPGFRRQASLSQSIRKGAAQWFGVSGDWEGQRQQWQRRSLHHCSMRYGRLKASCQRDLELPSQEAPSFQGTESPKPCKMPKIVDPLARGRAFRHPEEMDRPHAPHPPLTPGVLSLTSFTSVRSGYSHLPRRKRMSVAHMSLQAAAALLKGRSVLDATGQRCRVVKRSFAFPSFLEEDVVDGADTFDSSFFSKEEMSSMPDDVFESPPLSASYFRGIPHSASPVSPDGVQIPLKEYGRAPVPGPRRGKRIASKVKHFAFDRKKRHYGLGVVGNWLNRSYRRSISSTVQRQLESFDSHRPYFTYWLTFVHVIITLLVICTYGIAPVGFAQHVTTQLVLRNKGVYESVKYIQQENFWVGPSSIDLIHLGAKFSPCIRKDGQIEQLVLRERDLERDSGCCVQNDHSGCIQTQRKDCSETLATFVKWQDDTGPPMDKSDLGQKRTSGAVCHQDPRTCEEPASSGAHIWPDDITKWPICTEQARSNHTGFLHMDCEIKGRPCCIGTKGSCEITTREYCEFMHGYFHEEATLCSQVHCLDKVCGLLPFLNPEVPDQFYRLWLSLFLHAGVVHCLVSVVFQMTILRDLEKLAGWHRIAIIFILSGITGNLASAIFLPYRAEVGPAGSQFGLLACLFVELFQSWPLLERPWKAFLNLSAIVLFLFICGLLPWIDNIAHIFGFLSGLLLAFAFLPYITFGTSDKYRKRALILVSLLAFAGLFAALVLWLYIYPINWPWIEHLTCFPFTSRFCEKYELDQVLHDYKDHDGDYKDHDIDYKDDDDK
Test: FACS, MEF-DKO-hiR2-FL-WT-FLAG cells, 3 µg/ml
Description: In brief, immortalized MEF-DKO-EV control cells, MEF-DKO-hiR2-FL-WT-FLAG cells and MEF-DKO-miR2-FL-WT-FLAG cells were harvested with 10 mM EDTA in PBS, washed and resuspended in FACS buffer (PBS, 3% FBS, 0.05% sodium azide), and seeded in Nunc U-bottom 96-well plates (Thermo Fisher Scientific, USA) at approximately 3×10⁵ cells per well. To pellet cells and remove supernatants, the plates were centrifuged at 1,500 rpm and 4° C. for 3 minutes. For primary staining, cells were resuspended in 100 μl per well of either FACS buffer alone (controls), mouse monoclonal anti-FLAG IgG (Sigma-Aldrich, USA) at 3 μg/ml FACS buffer or the antibodies of the present disclosure also at 3 μg/ml FACS buffer and incubated on ice for 1 hour. Afterwards, plates were centrifuged at 1,500 rpm and 4° C. for 3 minutes and washed twice with 200 μl per well of FACS buffer. For secondary staining, cells were spun down and resuspended in 100 μl per well of PE-conjugated goat anti-mouse IgG F(ab′)2 detection fragment (Dianova, Germany) diluted 1:100 in FACS buffer. Protected from light, the cell suspensions were incubated on ice for 1 hour. Plates were then centrifuged at 1,500 rpm and 4° C. for 3 minutes and washed three times with 200 μl per well of FACS buffer. Finally, cells were resuspended in 150 μl per well of FACS buffer and analyzed using a BD Accuri™ C6 Plus flow cytometer (Becton Dickinson, Germany).

Binder | binding result
B1 | binds
B2 | binds
